Assay results from article PMC3089569 (The Journal of Biological Chemistry, 2011).

Molecular target: N-terminal histidine-tagged full-length mouse eIF4AI (mouse, UniProt P60843 1-406)
Test: SPR

Chain of N-terminal histidine-tagged full-length mouse eIF4AI (P60843 whole entry): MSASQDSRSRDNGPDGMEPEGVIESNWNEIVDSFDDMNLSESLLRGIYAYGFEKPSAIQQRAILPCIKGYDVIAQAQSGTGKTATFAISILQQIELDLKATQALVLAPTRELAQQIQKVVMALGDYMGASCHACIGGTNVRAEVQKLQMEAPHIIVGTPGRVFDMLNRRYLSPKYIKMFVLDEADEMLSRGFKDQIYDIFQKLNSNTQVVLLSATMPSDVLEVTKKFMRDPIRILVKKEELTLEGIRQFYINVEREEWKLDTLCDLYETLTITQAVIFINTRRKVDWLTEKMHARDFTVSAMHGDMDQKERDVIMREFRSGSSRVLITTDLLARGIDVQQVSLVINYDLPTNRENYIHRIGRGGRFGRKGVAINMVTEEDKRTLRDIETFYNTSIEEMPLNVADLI

Kd: 167 nM
B1: GST-MA-3M-C fusion protein (tandem MA-3 region of mouse Pdcd4, residues 157-449) (domain or fragment, UniProt Q61823 157-449, looked up)
chain: LPLDETAFEKTLTPIIQEYFEHGDTNEVAEMLRDLNLGEMKSGVPVLAVSLALEGKASHREMTSKLLSDLCGTVMSTNDVEKSFDKLLKDLPELALDTPRAPQLVGQFIARAVGDGILCNTYIDSYKGTVDCVQARAALDKATVLLSMSKGGKRKDSVWGSGGGQQPVNHLVKEIDMLLKEYLLSGDISEAEHCLKELEVPHFHHELVYEAIVMVLESTGESAFKMILDLLKSLWKSSTITIDQMKRGYERIYNEIPDINLDVPHSYSVLERFVEECFQAGIISKQLRDLCPS
